Test results reported in US20110318339A1 (FABRUS, published 2011).

B1: Fab VH5-51_IGHD5-18*01>3_IGHJ4*01 H:KT TRV & V3-4_IGLJ1*01 L:LP S52G (Fab, V domains shown)
VH: EVQLVQSGAEVKKPGESLKISCKTSGYRFTSYWIVWVRQMPGKGLEWMGIIYPGDSDTRYSPSFQGQVTISADKSISTAYLQWSSLKASDTAMYYCARRKYSYTYDYFDYWGQGTLVTVSS
VL: QTVVTQEPSFSVSPGGTVTLTCGLSSGSVSTSYYPSWYQQTPGQAPRTLIYGTNTRSSGVPDRFSGSILGNKAALTITGAQADDESDYYCLLYMGPGISYVFGTGTKVTVL
notes: Fab, lambda light chain; also called Fab H:KT TRV & L:LP S52G
B2: Fab VH1-46_IGHD6-6*01_IGHJ1*01 S102A/S103P/S104F/H111F & L6_IGKJ1*01 S28N/S30D/S31H (Fab, V domains shown)
VH: QVQLVQSGAEVKKPGASVKVSCKASGYTFTSYYMHWVRQAPGQGLEWMGIINPSGGSTSYAQKFQGRVTMTRDTSTSTVYMELSSLRSEDTAVYYCAREEYAPFSAEYFQFWGQGTLVTVSS
VL: EIVLTQSPATLSLSPGERATLSCRASQNVDHYLAWYQQKPGQAPRLLIYDASNRATGIPARFSGSGSGTDFTLTISSLEPEDFAVYYCQQRSNWPPWTFGQGTKVEIKR
notes: Fab made in E. coli: VH on CH1 with His6 and Flag tags (Plasmid A), VL on kappa CL (Plasmid C); also called H: APFF & L: NDH

Columns and labels:
[1] = target: T1, DLL4 DSL (amino acid: 1-217) construct (human, UniProt Q9NR61 26-217); experiment: Western blot, non-reducing
T1 construct: also called DSL construct; not shown: myc tag (and his tag) added by the PCR primers
Experimental: (§1) Media from transfected CHO cells was collected after 7 days. To enrich for the DLL4 protein, 1 ml aliquots of each sample were batch bound with 50 μl of Talon Resin for 30 minutes. To confirm protein production media samples were tested with mouse anti-c-myc mAb (Genescript; Catalog # A00704). Samples were washed and then boiled with loading dye in the presence or absence of DTT. A gel was run on each of the 2 samples for each condition: with DTT and without DTT. […] For detection goat anti-mouse HRP, goat anti-kappa HRP, and goat anti-lambda HRP were used, respectively.

[2] = target: T2, DLL4 Egf1 (amino acid: 1-251) construct (human, UniProt Q9NR61 26-251); experiment: Western blot, non-reducing
T2 construct: also called EGF1 construct; not shown: myc tag (and his tag) added by the PCR primers
Experimental: as §1

[3] = target: T3, DLL4 Egf2 (amino acid: 1-282) construct (human, UniProt Q9NR61 26-282); experiment: Western blot, non-reducing
T3 construct: also called EGF2 construct; not shown: myc tag (and his tag) added by the PCR primers
Experimental: as §1

[4] = target: T4, recombinant human DLL4 (Cat# 1506-D4/CF, R&D Systems) (human, UniProt Q9NR61 27-529); experiment: ELISA, DLL4 coated, Fab 50 nM
T4 construct: Bought protein; also called hDLL4; rHuman DLL4
Experimental: (§2) The plate was blocked by adding 1% BSA in Tris-buffered Saline Tween (TBST) and incubating for 1 hour at room temperature followed by washing 2 times with 150 μl TBST. A Fab antibody was serially diluted in 1% BSA in PBS. A 50 μl aliquot of each serial dilution was added, in triplicate, to each well and the plate was incubated for 1 hour at room temperature followed by washing 2 times with TBST. 50 μl of either goat anti-human kappa HRP conjugated secondary antibody (Cat # A7164-1 mL, Sigma-Aldrich) or goat anti-human lambda HRP conjugated secondary antibody (Cat # L1645-1 ml, Sigma-Aldrich), diluted 1:1000 in 1% BSA in PBS, was added to each well and the plate was incubated for 30 minutes at room temperature followed by washing 3 times with 200 μl TBST. Finally, 50 μl TMB one-component reagent (Cat # TMBW-1000-01, BioFax) was added and allowed to develop for 2 minutes at room temperature. The reaction was immediately halted by the addition of 50 μl 0.5M H₂SO₄ and the absorbance at 450 nm was measured using an ELISA plate reader.

[5] = target: T4, recombinant human DLL4 (Cat# …); experiment: ELISA, DLL4 coated, Fab 75 nM
[6] = target: T4, recombinant human DLL4 (Cat# …); experiment: ELISA, DLL4 coated, Fab 50 nM; remark: listed apart in the source
Experimental: as §2

[7] = target: T4, recombinant human DLL4 (Cat# …); experiment: ELISA, DLL4 coated, Fab 25 nM
Outline: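 Colorimetric ELISA: HRP goat anti-human kappa or lambda (1:1000) detects Fab bound during a 1 h room-temperature incubation of serial dilutions; TMB develops 2 min before 0.5M H₂SO₄ stop and 450 nm read.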

[8] = target: T4, recombinant human DLL4 (Cat# …); experiment: ELISA, DLL4 coated, Fab 100 nM
[9] = target: T4, recombinant human DLL4 (Cat# …); experiment: ELISA, DLL4 coated, Fab 100 nM; remark: listed apart in the source
Experimental: as §2

[10] = target: T4, recombinant human DLL4 (Cat# …); experiment: ELISA, DLL4 coated, Fab 12.5 nM
Experimental: as §2

[11] = target: T4, recombinant human DLL4 (Cat# …); experiment: ELISA, DLL4 coated, Fab 6.25 nM
Experimental: as §2

[12] = target: T4, recombinant human DLL4 (Cat# …); experiment: ELISA, DLL4 coated, Fab 3.125 nM
Experimental: as §2

[13] = target: T4, recombinant human DLL4 (Cat# …); experiment: SPR (ProteOn), hDLL4 amine-coupled on chip
Outline: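 Binding constants came from global fits of response data per surface. Three densities of amine-immobilised DLL4 were used, and Fabs started at 1 μM with 3-fold dilutions. Running buffer was HEPES 10 mM pH 7.4, NaCl 150 mM, Tween-20 0.01%, BSA 0.1 mg/ml at 25° C on a GLM chip.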

[14] = target: T4, recombinant human DLL4 (Cat# …); experiment: SPR (ProteOn), hDLL4 amine-coupled on chip; 2-site binding, 10% of it by the footnote
Experimental: (§3) In this example, the binding affinities of selected anti-DLL4 Fabs to recombinant human DLL4 (hDLL4, Cat# 1506-D4/CF, R&D Systems) were analyzed using Surface Plasmon Resonance (SPR) (Biosensor Tools, Salt Lake City, Utah). The Fabs analyzed include germline-derived antibodies and germline-modified DLL4 antibodies. Recombinant hDLL4 was immobilized on a SPR chip using amine coupling at three different surface densities. The Fabs were serially diluted 3-fold, with an initial concentration of 1 μM. Binding studies were run on a ProteOn system using a GLM sensor chip in 10 mM HEPES, pH 7.4, 150 mM NaCl, 0.01% Tween-20, and 0.1 mg/ml BSA at 25° C. The response data from each surface was globally fit to determine the binding constants.

[15] = target: T4, recombinant human DLL4 (Cat# …); experiment: SPR (ProteOn), hDLL4 amine-coupled on chip; 2-site binding, 89% of it by the footnote
Experimental: as §3

Binder | binding result [1] | binding result [2] | binding result [3] | ELISA absorbance at 450 nm [4] [A450] | ELISA absorbance at 450 nm [5] [A450] | ELISA absorbance at 450 nm [6] [A450] | ELISA absorbance at 450 nm [7] [A450] | ELISA absorbance at 450 nm [8] [A450] | ELISA absorbance at 450 nm [9] [A450] | ELISA absorbance at 450 nm [10] [A450] | ELISA absorbance at 450 nm [11] [A450] | ELISA absorbance at 450 nm [12] [A450] | koff [13] [s⁻¹] | kon [13] [M⁻¹ s⁻¹] | Kd [14] [nM] | Kd [15] [nM]
B1 | no binding (tested: 20 nM Fab) | no binding (tested: 20 nM Fab) | no binding (tested: 20 nM Fab) | – | – | – | – | – | – | – | – | – | – | – | – | –
B2 | – | – | – | 0.202 | 0.268 | 0.507 | 0.31 | 0.259 | 0.686 | 0.192 | 0.125 | 0.096 | 0.0689 | 444000 | 14 | 155
